B1: rhMD2 (Accession #BAA78717; Glu17-Asn160) with 10-His tag at the C-terminus (receptor, human)
chain: EAQKQYWVCNSSDASISYTYCDKMQYPISINVNPCIELKRSKGLLHIFYIPRRDLKQLYFNLYITVNTMNLPKRKEVICRGSDDDYSFCRALKGETVNTTISFSFKGIKFSKGKYKCVVEAISGSPEEMLFCLEFVILHQPNSNHHHHHHHHHH
notes: range 17-160; From R&D Systems, expressed in E. coli; also called TLR4 co-receptor MD2
B2: human CIRP 15-mer oligopeptide aa 101-115 (peptide)
peptide: RGFFRGGRGRGRGFS
B3: Recombinant human (rh) CIRP (Accession #NP_001271; full length) with C-terminal DDK tag (ligand)
chain: MASDEGKLFVGGLSFDTNEQSLEQVFSKYGQISEVVVVKDRETQRSRGFGFVTFENIDDAKDAMMAMNGKSVDGRQIRVDQAGKSSDNRSRGYRGGSAGGRGFFRGGRGRGRGFSRGGGDRGYGGNRFESRSGGYGGSRDYYSSRSQSGGYSDRSSGGSYRDSYDSYATHNE
notes: Bought from Origene, expressed in HEK293 cells; also called recombinant human CIRP; human CIRP; not shown: C-terminal DDK tag
B4: CIRP-derived oligopeptide C22 (human CIRP aa 106-120) (peptide)
peptide: GGRGRGRGFSRGGGD
notes: Synthetic, Genscript
B5: CIRP-derived oligopeptide C23 (human CIRP aa 111-125) (peptide)
peptide: GRGFSRGGGDRGYGG

Assays:
[1] = biological target: T1, rhTLR4 (Accession #O00206; Glu24-Lys631) with 10-His tag at the C-terminus (human, UniProt O00206 24-631); assay: SPR, BIAcore T200, positive control; rhMD2 to rhTLR4, positive control
T1 construct: range 24-631; From R&D Systems, expressed in mouse myeloma NS0 cells
Procedure: (§1) Analysis of protein-protein and peptide-protein interactions were conducted using the BIAcore T200 instrument (GE Healthcare). Binding reactions were performed in 1×PBS buffer containing 0.01% Tween-20 (pH 7.4). The CM5 dextran chip (flow cell-2) was first activated by injection with 89 μl of 0.1 M […] and 0.1 M N-hydroxysuccinimide. An aliquot of 200 μl of 5 μg/ml of the ligand diluted in 10 mM sodium acetate (pH 4.5) was injected into flow cell-2 of the CM5 chip for immobilization. Next, 135 μl of 1 M ethanolamine (pH 8.2) was then injected to block the remaining active sites. The flow cell-1 without coating with the ligand was used as a control to evaluate nonspecific binding. The binding analyses were performed at flow rate of 30 μl/min at 25° C. […] The signal from the blank channel (flow cell-1) was subtracted from the channel (flow-cell 2) coated with the ligand. Data were analyzed by the BIAcore T200 Evaluation Software. For all samples, a blank injection with buffer alone was subtracted from the resulting reaction surface data. Data were globally fitted to the Lagmuir model for a 1:1 binding.
(§2) Surface plasmon resonance (SPR) analysis was utilized to determine the physical interaction and binding affinity between rhCIRP and pattern-recognition receptors and MD2.

[2] = biological target: B3; assay: SPR, BIAcore T200, kinetic analysis, 1:1 Langmuir fit; target rhMD2
Procedure: as §1, §2

[3] = biological target: B1; assay: SPR, 15-mer oligopeptide as analyte over immobilized rhMD2
Procedure: as §1, §2

[4] = biological target: T2, rhTLR2 (Accession #NP_003255; Glu21-Leu590) with 10-His tag at the C-terminus (human, UniProt O60603 21-590); assay: SPR (BIAcore T200), analyte rhTLR2 over immobilized rhCIRP; apparent KD from kinetic analysis
T2 construct: range 21-590; From R&D Systems, expressed in mouse myeloma NS0 cells
Procedure: as §1, §2

[5] = biological target: T3, rhRAGE (Accession #Q15109; Ala23-Ala344) with C-terminal 6-His tag (human, UniProt Q15109 23-344); assay: SPR (BIAcore T200), analyte rhRAGE over immobilized rhCIRP; apparent KD from kinetic analysis
T3 construct: range 23-344; From Biovision, expressed in HEK293 cells
Procedure: as §1, §2

[6] = biological target: T1, rhTLR4 (Accession #O00206; …); assay: SPR, BIAcore T200, kinetic analysis, 1:1 Langmuir fit; target rhTLR4
Procedure: as §1, §2

[7] = biological target: T4, rhTLR4/MD2 complex (rhTLR4 Glu24-Lys631 co-expressed with rhMD2 Glu17-Asn160, His tag at each protein) (human, UniProt O00206 24-631; Q9Y6Y9 17-160); assay: SPR, BIAcore T200, kinetic analysis, 1:1 Langmuir fit; target rhTLR4/MD2 complex
T4 construct: range 24-631;range 17-160; Purified from NS0 cells co-expressing both proteins; R&D Systems; not shown: His tag; for the complex only 'His tag at each protein' is said (a general sentence gives a C-terminal 10-His tag for rh)
Procedure: as §1, §2

T1 sequence (O00206 other isoform, or with tags, fused parts or gaps limits assumed): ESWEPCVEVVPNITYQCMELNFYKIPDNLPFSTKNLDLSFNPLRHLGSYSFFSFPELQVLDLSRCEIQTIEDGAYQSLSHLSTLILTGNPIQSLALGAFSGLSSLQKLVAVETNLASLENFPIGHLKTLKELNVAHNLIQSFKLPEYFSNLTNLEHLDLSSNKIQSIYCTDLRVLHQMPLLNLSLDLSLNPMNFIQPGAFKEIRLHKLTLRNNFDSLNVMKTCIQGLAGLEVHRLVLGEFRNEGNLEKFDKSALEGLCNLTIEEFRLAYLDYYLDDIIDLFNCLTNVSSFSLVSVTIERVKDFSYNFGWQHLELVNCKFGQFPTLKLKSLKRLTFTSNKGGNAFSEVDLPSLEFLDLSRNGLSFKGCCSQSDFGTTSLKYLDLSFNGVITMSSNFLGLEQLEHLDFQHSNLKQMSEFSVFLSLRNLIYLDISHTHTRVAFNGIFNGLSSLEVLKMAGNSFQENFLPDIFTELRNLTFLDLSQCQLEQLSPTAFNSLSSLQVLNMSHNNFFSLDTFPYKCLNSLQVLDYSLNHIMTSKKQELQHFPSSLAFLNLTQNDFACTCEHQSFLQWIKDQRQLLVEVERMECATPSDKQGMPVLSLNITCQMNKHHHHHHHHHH
T4 sequence (O00206 24-631 limits assumed, form in doubt, one chain of several): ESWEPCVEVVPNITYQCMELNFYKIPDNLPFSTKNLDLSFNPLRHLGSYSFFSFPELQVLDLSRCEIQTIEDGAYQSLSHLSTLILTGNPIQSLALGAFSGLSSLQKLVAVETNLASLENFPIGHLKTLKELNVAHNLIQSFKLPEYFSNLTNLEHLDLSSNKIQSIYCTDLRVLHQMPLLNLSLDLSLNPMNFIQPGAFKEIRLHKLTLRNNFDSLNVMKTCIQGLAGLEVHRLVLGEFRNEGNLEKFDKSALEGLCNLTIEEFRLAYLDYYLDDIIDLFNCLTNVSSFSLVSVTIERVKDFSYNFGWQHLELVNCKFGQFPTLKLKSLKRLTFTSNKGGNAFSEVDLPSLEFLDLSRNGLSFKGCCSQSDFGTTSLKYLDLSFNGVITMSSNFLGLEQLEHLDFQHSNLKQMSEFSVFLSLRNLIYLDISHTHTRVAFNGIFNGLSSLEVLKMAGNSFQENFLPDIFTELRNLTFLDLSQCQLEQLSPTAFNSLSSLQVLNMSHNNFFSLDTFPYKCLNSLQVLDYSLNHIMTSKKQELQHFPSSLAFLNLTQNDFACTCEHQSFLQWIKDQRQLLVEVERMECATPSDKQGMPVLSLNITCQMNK
T3 sequence (Q15109 other isoform, or with tags, fused parts or gaps limits assumed): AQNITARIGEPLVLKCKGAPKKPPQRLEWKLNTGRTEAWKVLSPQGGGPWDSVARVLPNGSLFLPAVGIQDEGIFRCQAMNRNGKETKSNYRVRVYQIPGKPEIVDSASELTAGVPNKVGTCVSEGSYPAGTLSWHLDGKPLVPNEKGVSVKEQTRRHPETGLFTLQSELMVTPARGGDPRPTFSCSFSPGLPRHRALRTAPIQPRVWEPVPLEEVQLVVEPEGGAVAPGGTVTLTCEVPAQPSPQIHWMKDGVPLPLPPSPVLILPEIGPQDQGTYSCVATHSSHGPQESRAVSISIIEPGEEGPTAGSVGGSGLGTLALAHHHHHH
T2 sequence (O60603 other isoform, or with tags, fused parts or gaps limits assumed): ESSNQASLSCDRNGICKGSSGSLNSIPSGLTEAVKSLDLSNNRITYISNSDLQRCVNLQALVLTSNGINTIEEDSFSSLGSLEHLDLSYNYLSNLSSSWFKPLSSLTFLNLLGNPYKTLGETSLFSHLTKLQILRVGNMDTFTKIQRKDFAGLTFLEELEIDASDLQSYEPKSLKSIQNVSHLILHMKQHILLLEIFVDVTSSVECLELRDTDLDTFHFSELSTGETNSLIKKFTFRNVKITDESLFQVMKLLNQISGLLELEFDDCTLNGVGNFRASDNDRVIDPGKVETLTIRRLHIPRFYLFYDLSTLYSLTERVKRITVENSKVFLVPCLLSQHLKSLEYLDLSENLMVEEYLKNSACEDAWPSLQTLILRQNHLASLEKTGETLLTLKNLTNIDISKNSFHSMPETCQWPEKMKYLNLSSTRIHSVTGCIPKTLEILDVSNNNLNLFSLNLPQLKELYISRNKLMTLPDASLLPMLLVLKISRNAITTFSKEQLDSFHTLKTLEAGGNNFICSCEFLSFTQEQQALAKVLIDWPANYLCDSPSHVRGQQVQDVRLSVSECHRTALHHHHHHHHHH

B1
Kd [1]: 53.7 nM
Kd [2]: 302 nM

B2
Kd [3]: 1510 nM

B3
Kd [4]: 258 nM
Kd [5]: 33.1 nM
Kd [6]: 617 nM
Kd [7]: 239 nM

B4
Kd [3]: 129 nM

B5
Kd [3]: 29.7 nM
